Data on 2 molecules can be found in patent US7786356B2, “Method for the production of calendic acid, a fatty acid containing delta 8,10,12 conjugated double bonds and related fatty acids having a modification at the delta 9 position” (E.I. du Pont de Nemours and Company, priority 1999, dated 2010).

Where only a bound is given, the exact number is not on record here.

Holding throughout (assay type): cell-based
The test system of assay [1] is Saccharomyces cerevisiae INVSc1 cells. Description: Expression of CalFad2-1 and CalFad2-2 in Saccharomyces cerevisiae. To be noted: cells grown in media containing 2 mM linoleic acid, 4 days at 16° C.; (w/w) of total fatty acids. From the text:
The Calendula officinalis clones CalFad2-1 and CalFad2-2 were digested with the restriction enzymes EcoRI and XhoI. The resulting DNA fragments containing the entire cDNA inserts were purified by agarose gel electrophoresis. The purified cDNAs were ligated into the EcoRI and XhoI sites of the Saccharomyces cerevisiae expression vector pYES2 (Invitrogen) using T4 DNA ligase (New England Biolabs). The resulting plasmids pYes2/CalFad2-1 and pYes2/CalFad2-2 were introduced into Saccharomyces cerevisiae INVSc1 (Invitrogen Corp.) cells by lithium acetate-mediated transformation [Sherman F, Fink G R, Hicks J B, Methods in Yeast Genetics: A Laboratory Course Manual, Cold Spring Harbor Lab. Press, Plainview, N.Y. (1987)]. Transformed cells were selected for their ability to grow in the absence of uracil. […] In cells grown in media containing linoleic acid, calendic acid (18:3Δ^8trans,10trans,12cis) was detected in amounts of up to 2.9% (w/w) of the total fatty acids of cultures expressing CalFad2-1 (FIG. 3) and in amounts of up to 0.2% of the total fatty acids of cultures expressing CalFad2-2. […] No calendic acid was detected in cultures harboring the expression vector without a cDNA insert or in cells grown in the absence of exogenous linoleic acid. […]

The test system of assay [2] is somatic soybean embryos. Description: Production of calendic acid in somatic soybean embryos expressing CalFad2-1 or CalFad2-2. To be noted: single somatic embryos. The text has this: The open-reading frames of these cDNAs were amplified by PCR in order generate the appropriate flanking restriction enzyme sites for cloning into the soybean expression vector. The oligonucleotide primers used for amplification of the CalFad2-1 open-reading frame were: 5′-ttgcggccgc[…]-3′ (sense, SEQ ID NO:18) and 5′-ttgcggccg[…]-3′ (antisense, SEQ ID NO:19). The oligonucleotide primers used for amplification of the CalFad2-2 coding sequence were: 5′-agcggccgcTATACCATGGGCAAG-3′ (sense, SEQ ID NO:20) and 5′-tgcggccgcTATGTTAAACTTC-3′ (antisense, SEQ ID NO:21). [Note: The sequences shown in lower case contain an added NotI site along with additional bases to facilitate restriction enzyme digestion.] The template was the cDNA corresponding to either EST ecs1c.pk009.n14 (CalFad2-1) or EST ecs1c.pk08.a24 (CalFad2-2), and Pfu polymerase (Stratagene) was used for the amplification reactions. The resulting PCR products were subcloned into the intermediate vector pCR-Script AMP SK(+) (Stratagene) according to the manufacturer's protocol. The amplified CalFad2-1 and CalFad2-2 coding sequences were then released with NotI digestion and then subcloned into the corresponding site of the soybean expression vector pKS67.
The PCR amplified coding sequences of CalFad2-1 and CalFa2-2 were fused with the β-conglycinin promoter and phaseolin termination sequences in vector pKS67 was transformed into somatic soybean embryos as follows. To induce somatic embryos, cotyledons, 3-5 mm in length dissected from surface sterilized, immature seeds of a soybean cultivar A2872 or JACK-910 were cultured in the light or dark at 26° C. on an appropriate agar medium for 6-10 weeks. Somatic embryos that produce secondary embryos were then excised and placed into a suitable liquid medium. After repeated selection for clusters of somatic embryos that multiplied as early, globular staged embryos, the suspensions were maintained as described below.
Soybean embryogenic suspension cultures were maintained in 35 mL liquid media on a rotary shaker, 150 rpm, at 26° C. with florescent lights on a 16:8 hour day/night schedule. Cultures were subcultured every two weeks by inoculating approximately 35 mg of tissue into 35 mL of liquid medium.
Soybean embryogenic suspension cultures were then transformed with the vector pKS67 containing the coding sequence for CalFad2-1 and CalFad2-2 by the method of particle gun bombardment (Klein et al. (1987) Nature (London) 327:70, U.S. Pat. No. 4,945,050). A Du Pont Biolisticä PDS1000/HE instrument (helium retrofit) was used for these transformations.
To […] of a 60 mg/mL […] gold particle suspension were added (in order): 5 mL DNA (1 mg/mL), 20 ml spermidine (0.1 M), and […] CaCl2 (2.5 M). The particle preparation was then agitated for three minutes, spun in a microfuge for 10 seconds and the supernatant removed. The DNA-coated particles were then washed once in 400 mL 70% ethanol and resuspended in 40 mL of anhydrous ethanol. The DNA/particle suspension was sonicated three times for one second each. Five mL of the DNA-coated gold particles was then loaded on each macro carrier disk.
Approximately 300-400 mg of a two-week-old suspension culture was placed in an empty 60×15-mm petri dish and the residual liquid removed from the tissue with a pipette. For each transformation experiment, approximately 5 to 10 plates of tissue were bombarded. Membrane rupture pressure was set at 1100 psi and the chamber was evacuated to a vacuum of 28 inches mercury. The tissue was placed approximately 3.5 inches away from the retaining screen and bombarded three times. Following bombardment, the tissue was divided in half and placed back into liquid and cultured as described above.
Five to seven days post bombardment, the liquid media was exchanged with fresh media, and eleven to twelve days post bombardment with fresh media containing […] hygromycin. This selective media was refreshed weekly. […]

In assay [3] the test system is somatic soybean embryos. The assay can be described thus: Production of dimorphecolic acid in transgenic somatic soybean embryos expressing DMFad2-1 and/or DMFad2-2. From the text: Initially, the open-reading frames of cDNAs for DMFad2-1 and DMFad2-2 were amplified by PCR using Pfu polymerase (Stratagene) to generate the appropriate restriction enzyme sites for cloning into the soybean expression vector. For amplification of the open-reading frame of the DMFad2-1 cDNA, EST dms2c.pk006.d7 (SEQ ID NO: 10 for the nucleotide sequence, and SEQ ID NO:11 for the polypeptide translation product) was used as the template, and the oligonucleotide primers were: 5′-tatgcggccgcAAATGGGAGCAGGAGGTTG-3′ (sense, SEQ ID NO:22) and 5′-tttgcggccgc[…]-3′ (antisense, SEQ ID NO:23). For amplification of the open-reading frame of the DMFad2-2 cDNA, EST dms2c.pk001.113 (SEQ ID NO:12 for the nucleotide sequence, and SEQ ID NO:13 for the polypeptide translation product) was used as the template, and the oligonucleotide primers were: 5′-tgcggccgc[…]-3′ (sense, SEQ ID NO:24) and 5′-tagcggccgcTGATTAATCAAGTCTTAG-3′ (antisense, SEQ ID NO:25). The nucleotides shown in lower case are not Dimorphotheca sequences, but instead encode an added NotI site along with additional bases to facilitate restriction enzyme digestion. The resulting PCR products were subcloned into the intermediate vector pCR-Script AMP SK(+) (Stratagene) according to the manufacturer's protocol. […]
The expression constructs containing the DMFad2-1 and DMFad2-2 coding sequences in vector pKS67 were transformed into somatic soybean embryos using the biolistic method as described in Example 10. […] The fatty acid compositions of the resulting transgenic soybean embryos were then assessed for the presence of novel fatty acid structures. […] The resulting transgenic soybean embryos selected for hygromycin resistance were analyzed for alterations in fatty acid content relative to untransformed embryos. […] The recovered fatty acid methyl esters and derivatives were then analyzed using a Hewlett-Packard 6890 chromatograph fitted with an Omegawax 320 column (30 m×0.32 mm inner diameter; Supelco). […] Fatty acid methyl esters were also analyzed by GC-MS an HP6890 interfaced with a HP5973 (Hewlett-Packard) mass selective detector. […]

The mark [4] stands for this setting: n = 5, ± standard deviation, weight % of total fatty acids.

B1: CalFad2-2: Calendula officinalis fatty acid modifying enzyme (cDNA SEQ ID NO:3, protein SEQ ID NO:4) forming conjugated double bonds at delta-9 position (protein, listed as Calendula officinalis)
chain: MGKAASAKKVLERVPISKPPFEYNDLKKAVPPHCFSRPLSRSLYFLFHDIIVTCILFYVASNYIHMLPRFLSCIVWPVYWISQGVFLGRLWMIGHECGHHSFSNYRWVDDTVGFLIHTATLTPYFSFKYSHRNHHAHTNSMEYDEVHIPKRKSEALYFEFLGNNPIGLMITMLCKLTFGYAAYIMFNYTGKKHKSGGLASHFYPQSPLFNDSERNHVLFSDIGICIVLYACYRIVTVTGAMPAFYVYGIPWVIMSAILFAATYLQHTHPSIPHYDTTEWNWLRGALSTIDRDLGFFNMNKTHYHVIHHLFPVIPEYHAQEATEAIKPILGQYYKYDGTPFLKALWREMKECIYVESDEGQKKQGIYWFKNKT
B1: the “calendic acid (18:3Δ8trans,10trans,12cis), amount of the total fatty acids” value in assay [1] is listed as “up to 0.2%”. The “Other, Fatty Acid Weight %” value in the assay with somatic soybean embryos [2] (n = 5, weight % of total fatty acids) is “≦1.7 Weight %”. Also, in the assay with somatic soybean embryos [2] (setting [4]), the “16:0, Fatty Acid Weight %” value is reported as 12.3 ± 1.1 Weight %; the “18:0, Fatty Acid Weight %” value was 3.3 ± 0.5 Weight %; the “18:1, Fatty Acid Weight %” value was determined as 8.6 ± 2.1 Weight %; the “18:2, Fatty Acid Weight %” value is on record as 38.2 ± 3.4 Weight %. Further, in the assay on somatic soybean embryos [2] (setting [4]), the “18:3, Fatty Acid Weight %” value is listed as 17.7 ± 3.5 Weight % and the “Calendic Acid, Fatty Acid Weight %” value was 18.1 ± 3.6 Weight %.

B2: DMFad2-2: Dimorphotheca sinuata Δ-9 hydroxy-conjugase (SEQ ID NO:12/13) converting trans-linoleic acid to dimorphecolic acid (protein, listed as Dimorphotheca sinuata)
chain: MGASEEMKVLERVPVSKPPFEYNDLKKAVPPHCFTRSLSLSFYYLFYDLIKVCILFYVASKYIPMLPYSLSCIVWPLYWFFQGAFLGRLWMIGHECGHHSFSNYRWLDDTVGFLVHTATLTPYFSFKYSHRNHHAHTNSLEYDEVHVPKIRKFKSEHLYSEFLTNNPFGLVVNMVFELTFGYPSYLIFNYSGRKLTQAGFASHLYPQSPIFNDSERNHVFFSDVGICIVLYALYRIAIAKGAMLVLYVYGLPWVVMSAFIFSLTYLQHTHPSIPHYDSTEWNWLRGALSSIDRELAGAFNIKKTHYHVVHHLFPFIPEYHAHDATEALKPILGPYYKYDGTPFYKALWREMKDCLYVESDDGPNKTGVYWFKTKT
As for B2, the dimorphecolic acid accumulation result in the assay with somatic soybean embryos [3] ("DMFad2-2 alone" transformants) is recorded as “less than 0.1%”. In addition, the “18:2Δ9cis,12trans in extracts of somatic soybean embryos (FIG. 9)” value in the assay on somatic soybean embryos [3] (embryo extracts of FIG. 9 panels B and C) is reported as “lacked detectable amounts”. Moreover, the “dimorphecolic acid isomers, share of the total fatty acids” value with somatic soybean embryos [3] (experiment MSE 229, GC-MS selected ion 225 m/z) is less than 0.1%.
